For experiment [1], the target named is T1, 人CD137全长 (SEQ ID No.19)，表达于细胞 (human, UniProt Q07011 24-255).
T1 construct: The full-length entry was transfected into CHO-K1 cells for FACS and into HEK293 cells for the reporter assay; also called CHO-K1/hCD137; 细胞表面人CD137
The experiment is described as follows: flow cytometry (FACS) on CHO-K1/hCD137 cells, goat anti-human FITC; antibody at 250 nM. (In general: A flow cytometer gives signals particle by particle.)

The target of experiment [2] is T1, 人CD137全长 (SEQ ID No.19)，表达于细胞. Nature of the experiment: flow cytometry (FACS) on CHO-K1/hCD137 cells, goat anti-human FITC; antibody at 1.028806584 nM.
Experiment [3] has the same target. The experiment is described as follows: flow cytometry (FACS) on CHO-K1/hCD137 cells, goat anti-human FITC; antibody at 0.342935528 nM.
Experiment [4] shares this target. Nature of the experiment: flow cytometry (FACS) on CHO-K1/hCD137 cells, goat anti-human FITC; antibody at 3.086419753 nM.
Experiment [5] has the same target. Nature of the experiment: flow cytometry (FACS) on CHO-K1/hCD137 cells, goat anti-human FITC; antibody at 9.259259259 nM.
For experiment [6] the target is unchanged. The experiment is described as follows: flow cytometry (FACS) on CHO-K1/hCD137 cells, goat anti-human FITC; antibody at 83.33333333 nM.
Experiment [7] has as its target T2, 人PD-L1全长 (SEQ ID No.22)，表达于CHO-K1细胞 (human, UniProt Q9NZQ7 19-290).
T2 construct: The full-length entry was transfected; also called CHO-K1/hPD-L1; 细胞表面人PD-L1
Nature of the experiment: flow cytometry (FACS) on CHO-K1/hPD-L1 cells, goat anti-human FITC.

In experiment [8] the target is T3, 人PD-L1胞外段 (SEQ ID No.22 第19-238位)，带His标签 (human, UniProt Q9NZQ7 19-238).
T3 construct: It may be the same preparation as m7; not shown: His tag
The experiment is described as follows: bridging ELISA: human PD-L1-His coated, bispecific antibody, then human CD137-mouse Fc, goat anti-mouse HRP.

In experiment [9] the target is T1, 人CD137全长 (SEQ ID No.19)，表达于细胞. The experiment is described as follows: flow cytometry (FACS) on CHO-K1/hCD137 cells, goat anti-human FITC; 4-parameter logistic fit.
Experiment [10] shares this target. The experiment is described as follows: flow cytometry (FACS) on CHO-K1/hCD137 cells, goat anti-human FITC; antibody at 27.77777778 nM.
The target in experiment [11] is T4, 人PD-L1胞外段 (SEQ ID No.22 第19-238位) (human, UniProt Q9NZQ7 19-238).
T4 construct: also called 人PD-L1抗原
The experiment is described as follows: ELISA, human PD-L1 extracellular domain coated, goat anti-human HRP.

Experiment [12] has as its target T5, 猴PD-L1胞外段 (SEQ ID No.23) (monkey, UniProt Q9NZQ7 19-238 (human entry)).
T5 construct: Expressed in HEK293; no tag is stated; also called 猴PD-L1抗原
Nature of the experiment: ELISA, monkey PD-L1 extracellular domain coated, goat anti-human HRP. In general terms: An ELISA detects its analyte on a solid surface through an enzyme-linked reagent.

The target of experiment [13] is T6, 猴CD137胞外段 (SEQ ID No.20) (monkey, UniProt Q07011 24-186 (human entry)).
T6 construct: Expressed in HEK293; no tag is stated; also called 猴CD137抗原
T6 chain: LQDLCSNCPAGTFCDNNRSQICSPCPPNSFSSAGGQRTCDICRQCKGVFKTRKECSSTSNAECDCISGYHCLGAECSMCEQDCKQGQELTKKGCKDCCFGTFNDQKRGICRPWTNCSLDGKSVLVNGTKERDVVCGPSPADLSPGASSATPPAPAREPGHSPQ
Nature of the experiment: ELISA, monkey CD137 extracellular domain coated, goat anti-human HRP.

T1 sequence (Q07011 24-255 limits assumed): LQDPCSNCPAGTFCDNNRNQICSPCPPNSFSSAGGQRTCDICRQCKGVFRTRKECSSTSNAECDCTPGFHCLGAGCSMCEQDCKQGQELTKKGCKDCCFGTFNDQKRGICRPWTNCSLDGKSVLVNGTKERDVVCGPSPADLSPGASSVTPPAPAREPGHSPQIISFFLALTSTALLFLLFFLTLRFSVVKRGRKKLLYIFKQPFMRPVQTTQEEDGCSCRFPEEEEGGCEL
T3 sequence (Q9NZQ7 19-238): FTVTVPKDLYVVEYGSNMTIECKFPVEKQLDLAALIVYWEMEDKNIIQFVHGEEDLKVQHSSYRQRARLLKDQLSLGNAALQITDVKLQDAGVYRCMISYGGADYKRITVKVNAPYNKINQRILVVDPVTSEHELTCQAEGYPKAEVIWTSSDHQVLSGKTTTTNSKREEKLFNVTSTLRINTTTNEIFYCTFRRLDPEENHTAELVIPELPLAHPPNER
T4 sequence (Q9NZQ7 19-238): as above
T2 sequence (Q9NZQ7 19-290 limits assumed): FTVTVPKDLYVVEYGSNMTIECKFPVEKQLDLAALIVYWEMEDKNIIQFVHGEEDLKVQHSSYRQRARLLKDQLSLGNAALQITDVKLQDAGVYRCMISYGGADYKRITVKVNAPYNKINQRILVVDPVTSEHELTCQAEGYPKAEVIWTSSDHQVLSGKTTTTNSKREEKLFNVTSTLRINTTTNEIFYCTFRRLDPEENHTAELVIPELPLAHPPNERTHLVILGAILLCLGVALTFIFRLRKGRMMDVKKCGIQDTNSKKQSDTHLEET
T5 sequence (Q9NZQ7 other isoform, or with tags, fused parts or gaps): as the sequence (Q9NZQ7 19-238) above, with A33T, A34S, S62N, R68Q, Q82R, F173L, T185A, T192I, H215L counted along it

B1: 抗人PD-L1/CD137双特异性抗体 结构B (1st scFv-L1-Fc-L2-2nd Fab) (bispecific antibody, human IgG4 S228P, kappa, F234A L235A)
heavy: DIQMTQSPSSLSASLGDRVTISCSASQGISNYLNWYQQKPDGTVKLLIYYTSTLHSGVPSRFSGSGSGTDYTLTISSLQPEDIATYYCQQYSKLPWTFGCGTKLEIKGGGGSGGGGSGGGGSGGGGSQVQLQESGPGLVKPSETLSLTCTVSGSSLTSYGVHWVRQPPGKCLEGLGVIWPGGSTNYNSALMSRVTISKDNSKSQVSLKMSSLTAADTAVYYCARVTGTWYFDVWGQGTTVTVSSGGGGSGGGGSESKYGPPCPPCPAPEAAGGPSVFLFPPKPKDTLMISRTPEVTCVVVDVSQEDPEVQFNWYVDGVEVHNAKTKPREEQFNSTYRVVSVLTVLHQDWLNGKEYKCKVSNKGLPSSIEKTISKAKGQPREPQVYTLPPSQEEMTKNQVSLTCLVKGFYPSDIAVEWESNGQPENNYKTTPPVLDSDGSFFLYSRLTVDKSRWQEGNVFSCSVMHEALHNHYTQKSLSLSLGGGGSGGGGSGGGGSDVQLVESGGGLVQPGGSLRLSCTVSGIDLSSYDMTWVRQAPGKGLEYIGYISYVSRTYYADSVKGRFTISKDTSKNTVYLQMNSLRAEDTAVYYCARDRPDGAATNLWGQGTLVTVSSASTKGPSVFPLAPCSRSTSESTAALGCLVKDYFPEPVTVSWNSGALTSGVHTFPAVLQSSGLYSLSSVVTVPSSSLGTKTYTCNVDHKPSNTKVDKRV
light: DIQMTQSPSTLSASVGDRVTITCQSSQNVYSNNRLSWYQQKPGKAPKLLIYWTSFLASGVPSRFSGSGSGTEFTLTISSLQPDDFATYYCAGGYSGNLYTFGQGTKLEIKRTVAAPSVFIFPPSDEQLKSGTASVVCLLNNFYPREAKVQWKVDNALQSGNSQESVTEQDSKDSTYSLSSTLTLSKADYEKHKVYACEVTHQGLSSPVTKSFNRGEC
notes: Anti-CD137 scFv at the N-terminus of human IgG4 Fc, anti-PD-L1 Fab at its C-terminus; also called B结构
B1: the “FACS signal (read-out name not given)” value was found to be 16200 in experiment [1]; 3020 in experiment [2]; 2680 in [3]; 4096 in experiment [4]; 8000 in experiment [5]; 16100 in [6]. The “FACS signal (read-out name not given)” value in experiment [10] was 12100. For the same molecule, the binding result in [7], in experiment [8] and in experiment [11] was “binds” in each case. Besides, in [9], the EC50 turned out to be 14.4 nM.

B2: 抗人PD-L1/CD137双特异性抗体 结构D3 (D1的突变分子) (bispecific antibody, human IgG4 S228P, kappa, F234A L235A)
heavy: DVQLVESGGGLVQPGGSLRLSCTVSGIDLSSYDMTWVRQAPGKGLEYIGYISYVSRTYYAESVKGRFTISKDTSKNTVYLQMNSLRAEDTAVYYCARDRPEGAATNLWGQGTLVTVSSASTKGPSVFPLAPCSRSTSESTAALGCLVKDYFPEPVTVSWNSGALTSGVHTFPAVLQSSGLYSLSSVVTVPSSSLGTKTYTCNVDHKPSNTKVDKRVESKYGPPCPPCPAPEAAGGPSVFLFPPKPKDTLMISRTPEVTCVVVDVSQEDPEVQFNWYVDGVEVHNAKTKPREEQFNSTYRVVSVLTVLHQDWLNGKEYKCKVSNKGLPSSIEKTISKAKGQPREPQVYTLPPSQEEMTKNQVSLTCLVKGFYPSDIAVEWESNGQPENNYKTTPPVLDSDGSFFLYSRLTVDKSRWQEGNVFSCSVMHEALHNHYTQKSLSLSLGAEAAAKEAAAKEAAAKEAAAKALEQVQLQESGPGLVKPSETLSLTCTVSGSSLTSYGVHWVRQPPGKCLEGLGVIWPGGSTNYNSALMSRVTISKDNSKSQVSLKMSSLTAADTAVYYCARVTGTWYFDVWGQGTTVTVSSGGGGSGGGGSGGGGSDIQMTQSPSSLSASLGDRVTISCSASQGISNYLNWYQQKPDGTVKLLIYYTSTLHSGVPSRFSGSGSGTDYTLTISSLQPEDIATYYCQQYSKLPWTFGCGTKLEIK
light: DIQMTQSPSTLSASVGDRVTITCQSSQNVYSNNRLSWYQQKPGKAPKLLIYWTSFLASGVPSRFSGSGSGTEFTLTISSLQPDDFATYYCAGGYSGNLYTFGQGTKLEIKRTVAAPSVFIFPPSDEQLKSGTASVVCLLNNFYPREAKVQWKVDNALQSGNSQESVTEQDSKDSTYSLSSTLTLSKADYEKHKVYACEVTHQGLSSPVTKSFNRGEC
notes: Mutant of D1; also called D3结构
For the molecule B2, the “FACS signal (read-out name not given)” value in experiment [1] is 16600; in [2], 2620; in [3], 2590; in experiment [4], 2920; in experiment [5] it was 7390; in [6], 16700. In experiment [10], the “FACS signal (read-out name not given)” value is 14600. A half-maximal response in experiment [9] (EC50) required 12.4 nM.

B3: 抗人PD-L1/CD137双特异性抗体 结构D6 (D2的突变分子) (bispecific antibody, human IgG4 S228P, kappa, F234A L235A)
heavy: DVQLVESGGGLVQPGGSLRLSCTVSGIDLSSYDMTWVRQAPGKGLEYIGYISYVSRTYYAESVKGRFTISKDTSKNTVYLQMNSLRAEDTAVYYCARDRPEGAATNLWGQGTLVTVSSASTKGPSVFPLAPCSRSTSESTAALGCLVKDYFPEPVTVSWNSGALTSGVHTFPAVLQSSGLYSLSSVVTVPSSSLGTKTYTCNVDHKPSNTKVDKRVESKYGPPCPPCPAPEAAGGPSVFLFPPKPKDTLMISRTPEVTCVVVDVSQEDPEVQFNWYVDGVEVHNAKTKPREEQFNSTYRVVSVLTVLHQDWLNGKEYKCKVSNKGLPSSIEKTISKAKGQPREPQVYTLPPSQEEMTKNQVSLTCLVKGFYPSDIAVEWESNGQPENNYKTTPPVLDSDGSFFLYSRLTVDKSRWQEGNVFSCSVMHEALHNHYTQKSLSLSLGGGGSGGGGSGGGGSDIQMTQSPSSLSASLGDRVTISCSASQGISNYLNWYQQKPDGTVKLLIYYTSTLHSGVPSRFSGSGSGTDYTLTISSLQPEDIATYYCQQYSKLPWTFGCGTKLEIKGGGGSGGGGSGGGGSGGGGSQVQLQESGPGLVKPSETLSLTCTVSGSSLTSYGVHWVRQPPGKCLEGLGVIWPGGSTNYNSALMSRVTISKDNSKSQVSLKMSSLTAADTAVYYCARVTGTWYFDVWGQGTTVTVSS
light: DIQMTQSPSTLSASVGDRVTITCQSSQNVYSNNRLSWYQQKPGKAPKLLIYWTSFLASGVPSRFSGSGSGTEFTLTISSLQPDDFATYYCAGGYSGNLYTFGQGTKLEIKRTVAAPSVFIFPPSDEQLKSGTASVVCLLNNFYPREAKVQWKVDNALQSGNSQESVTEQDSKDSTYSLSSTLTLSKADYEKHKVYACEVTHQGLSSPVTKSFNRGEC
notes: Mutant of D2; also called D6结构
Consider B3, for which the “FACS signal (read-out name not given)” value in [1] turned out to be 15300; in [2] it was 2770; in [3] it was 2620; in [4], 3930; in experiment [5], 7030; in experiment [6], 15400. Further, the “FACS signal (read-out name not given)” value in experiment [10] came to 11100. For the same molecule, the binding result in experiment [12], in experiment [13], in [7], in experiment [8] and in [11] was “binds” in each case. The same molecule yielded an EC50 in experiment [9] of 16.4 nM.

What is called EC50 is the midpoint of the concentration-response curve.

The record behind these values is patent CN115677858A (HEFEI HANKEMAB BIOTECHNOLOGY CO LTD; ANHUI ANKE …, dated 2023).
